# Test results from US20260242478A1 (published 2026).
# Where no end group is shown, it is not given here.
# Assays:
# [1] = target: T1, Anti-CD28 Fab (SEQ ID NOs: 696, 697); assay: phage binding ELISA on plate-captured Fab, competitor CD28 antigen
# T1 construct: In the phage ELISA the Fab was biotinylated and captured on neutravidin coated plates
# Procedure: (§1) After panning, phage infected bacteria were plated out and colonies picked into 96 well blocks. Clonal phage was then amplified and separated from bacterial cells via centrifugation.
# (§2) Clonal phage were harvested as crude supematants and screened via standard ELISAs. […] Prior to the addition of clonal phage, wells were incubated with blocking buffer and CD28 antigen or blocking buffer alone. Without washing or aspirating, clonal phage supematants were then added to the wells and incubated for a short time. Wells were then washed followed by detection of bound phage using a horse radish conjugated anti-M13 antibody. Clonal phage of interest were then sent for sequence analysis.
# [2] = target: T1, Anti-CD28 Fab (SEQ ID NOs: 696, 697); assay: phage binding ELISA, biotinylated Fab on neutravidin plate, anti-M13 HRP detection;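 also: crude clonal phage supernatants added to Fab-coated wells pretreated with CD28 antigen or with blocking buffer only, bound phage measured after washing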
# Procedure: as §1, §2
# anti-CD28 Fab [3] = assay: BLI (Octet): biotinylated peptide on streptavidin sensor, anti-CD28 Fab titrated in solution, 1:1 model
# Target sequence in this assay (VH, as listed by the source, chain 1 of 2): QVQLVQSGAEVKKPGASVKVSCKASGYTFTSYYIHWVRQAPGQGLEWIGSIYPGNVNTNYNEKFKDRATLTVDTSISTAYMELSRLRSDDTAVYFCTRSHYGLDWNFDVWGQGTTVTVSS
# Target sequence in this assay (VL, as listed by the source, chain 2 of 2): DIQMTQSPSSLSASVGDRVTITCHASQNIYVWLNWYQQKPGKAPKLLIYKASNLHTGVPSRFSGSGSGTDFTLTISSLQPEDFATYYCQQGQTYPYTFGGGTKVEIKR
# [4] = target: T2, anti-CD28 scFv (VH - linker 1 - VL) (biotinylated (site not given)); assay: phage ELISA as above; wells pre-incubated with soluble CD28 as competitor;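 also: crude clonal phage supernatants tested, with bound phage detected by HRP-conjugated anti-M13 antibody, and reference wells given blocking buffer without CD28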
# T2 construct: Biotinylated scFv captured on neutravidin coated plates in the panning ELISA
# [5] = target: T2, anti-CD28 scFv (VH - linker 1 - VL); assay: phage ELISA; biotinylated anti-CD28 scFv on neutravidin plate, clonal phage supernatant, anti-M13 HRP
# Procedure: Clonal phage were harvested as crude supernatants and screened via standard enzyme linked immunosorbent assays (ELISAs). […] Prior to the addition of clonal phage, wells were incubated with blocking buffer and CD28 soluble protein or blocking buffer alone. Without washing or aspirating, clonal phage supernatants were then added to the wells and incubated for a short time. Wells were then washed followed by detection of bound phage using a horse radish peroxidase conjugated anti-M13 antibody.
# anti-CD28 Fab [6] = assay: competition ELISA, peptide titrated 0-100 uM against 1 nM anti-CD28 Fab, plate-bound CD28 as competitor
# Target sequence in this assay (VH, as listed by the source, chain 1 of 2): as the sequence (VH, as listed by the source, chain 1 of 2) above
# Target sequence in this assay (VL, as listed by the source, chain 2 of 2): as the sequence (VL, as listed by the source, chain 2 of 2) above
# T2 sequence (scFv, as listed by the source): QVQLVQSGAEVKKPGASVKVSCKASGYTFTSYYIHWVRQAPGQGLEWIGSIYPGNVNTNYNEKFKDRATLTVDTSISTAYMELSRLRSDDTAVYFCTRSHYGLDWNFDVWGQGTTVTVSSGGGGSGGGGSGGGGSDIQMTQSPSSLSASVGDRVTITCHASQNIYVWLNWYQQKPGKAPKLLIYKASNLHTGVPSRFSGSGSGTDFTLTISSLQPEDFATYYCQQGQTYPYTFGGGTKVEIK
# T1 sequence (VH, as listed by the source, chain 1 of 2): as the sequence (VH, as listed by the source, chain 1 of 2) above
# T1 sequence (VL, as listed by the source, chain 2 of 2): as the sequence (VL, as listed by the source, chain 2 of 2) above
Binder,Anti-CD28 Fab signal in the presence of CD28 [1],"Anti-CD28 Fab (SEQ ID NOs: 696, 697) signal [2]",IC50 (anti-CD28 Fab [6]),other results
"WCWDYKLWVPMTCP (cysteine pairing not given here; also: displayed on phage, fused to pIII, Clonal phage supernatant; not shown: bacteriophage pIII to which the peptide is fused for display) [Phage-464]",0.11,2.51,–,–
FMCLPQNPHPLCFK (Clonal phage supernatant; not shown: bacteriophage pIII to which the peptide is fused for display) [Phage-456],0.06,0.84,–,–
"YCEGHLPEYIEKCL (cysteine pairing not given here; also: biotinylated, site not given here)",–,–,–,Kd (anti-CD28 Fab [3]): 0.926 µM; koff (anti-CD28 Fab [3]): 0.0239 s⁻¹; kon (anti-CD28 Fab [3]): 25800 M⁻¹ s⁻¹; t1/2 (anti-CD28 Fab [3]): 30 s
"YCEGHLPEYREKCL (not fully specified; cysteine pairing not given here; also: biotinylated, site not given here) [Peptide-126]",–,–,–,t1/2 (anti-CD28 Fab [3]): 36 s
WECLKYTEANACTY (Clonal phage supernatant; not shown: bacteriophage pIII to which the peptide is fused for display) [Phage-455],0.07,1.55,–,–
"MDWCPRYLWTVCFS (cysteine pairing not given here; also: displayed on phage as fusion to pIII, linker not given here) [Phage-93]",–,–,–,CD28 scFv signal in presence of CD28 [4]: 0.372; CD28 scFv signal [5]: 2.58
"MDWCPRTLWAYCFN (cysteine pairing not given here; also: displayed on phage as fusion to pIII, linker not given here) [Phage-96]",–,–,–,CD28 scFv signal in presence of CD28 [4]: 0.584; CD28 scFv signal [5]: 2.57
"ECHWSMWAVGHACF (cysteine pairing not given here; also: displayed on phage, fused to pIII, Clonal phage supernatant; not shown: bacteriophage pIII to which the peptide is fused for display) [Phage-462]",0.07,1.77,–,–
"MDWCPKDLWDYCFA (cysteine pairing not given here; also: displayed on phage as fusion to pIII, linker not given here) [Phage-97]",–,–,–,CD28 scFv signal in presence of CD28 [4]: 0.165; CD28 scFv signal [5]: 2.57
"YWYCSPSIVRCVLV (cysteine pairing not given here; also: displayed on phage, fused to pIII, Clonal phage supernatant; not shown: bacteriophage pIII to which the peptide is fused for display) [Phage-468]",0.09,1.51,–,–
HCSGHHWLQVWKCF [Peptide-130],–,–,> 100 µM,–
"WCWDYREWVPMTCP (cysteine pairing not given here; also: displayed on phage, fused to pIII, Clonal phage supernatant; not shown: bacteriophage pIII to which the peptide is fused for display) [Phage-461]",0.08,2.3,–,–
"WCWYYREWVPMTCP (cysteine pairing not given here; also: displayed on phage, fused to pIII, Clonal phage supernatant; not shown: bacteriophage pIII to which the peptide is fused for display) [Phage-467]",0.07,1.85,–,–
"YCAGHAWQYINKCL (cysteine pairing not given here; also: displayed on phage, fused to pIII, Clonal phage supernatant; not shown: bacteriophage pIII to which the peptide is fused for display) [Phage-466]",0.07,0.64,–,–
"YCEGHAPEYIAKCL (cysteine pairing not given here; also: biotinylated, site not given here)",–,–,–,Kd (anti-CD28 Fab [3]): 0.831 µM; koff (anti-CD28 Fab [3]): 0.028 s⁻¹; kon (anti-CD28 Fab [3]): 33700 M⁻¹ s⁻¹; t1/2 (anti-CD28 Fab [3]): 24 s
"GCQYPWAFDAMSCP (cysteine pairing not given here; also: displayed on phage, fused to pIII, Clonal phage supernatant; not shown: bacteriophage pIII to which the peptide is fused for display) [Phage-459]",0.07,2.38,–,–
YCEGHSQEYLWKCL [Peptide-128],–,–,9.66 µM,–
WICDKSGSIMLCRA (Clonal phage supernatant; not shown: bacteriophage pIII to which the peptide is fused for display) [Phage-470],0.06,0.91,–,–
"MDWCPRDLWSLCFY (cysteine pairing not given here; also: displayed on phage as fusion to pIII, linker not given here) [Phage-94]",–,–,–,CD28 scFv signal in presence of CD28 [4]: 0.246; CD28 scFv signal [5]: 2.57
"ACDTYFAGMINECF (cysteine pairing not given here; also: displayed on phage, fused to pIII, Clonal phage supernatant; not shown: bacteriophage pIII to which the peptide is fused for display) [Phage-458]",0.1,0.92,–,–

Binder,Anti-CD28 Fab signal in the presence of CD28 [1],"Anti-CD28 Fab (SEQ ID NOs: 696, 697) signal [2]",IC50 (anti-CD28 Fab [6]),other results
"YCAGHSPINIGKCL (cysteine pairing not given here; also: displayed on phage, fused to pIII, Clonal phage supernatant; not shown: bacteriophage pIII to which the peptide is fused for display) [Phage-463]",0.06,1.49,–,–
SCAAGASYAWPYCL (Clonal phage supernatant; not shown: bacteriophage pIII to which the peptide is fused for display) [Phage-471],0.05,1.49,–,–
YCEGHLPEYLEKCV [Peptide-133],–,–,2.9 µM,–
YCEGHLPEYLGKCL [Peptide-125],–,–,0.83 µM,–
YCEGHLPEYLAKCL,–,–,0.3 µM,–
"WCWDYKLWVPTQCP (cysteine pairing not given here; also: displayed on phage, fused to pIII, Clonal phage supernatant; not shown: bacteriophage pIII to which the peptide is fused for display) [Phage-460]",0.14,2.27,–,–
"DCWWMFESYPGRCI (cysteine pairing not given here; also: displayed on phage, fused to pIII, Clonal phage supernatant; not shown: bacteriophage pIII to which the peptide is fused for display) [Phage-465]",0.07,1.65,–,–
"MDWCPRFLWSECFN (cysteine pairing not given here; also: displayed on phage as fusion to pIII, linker not given here, also called position columns give F at position 7)) [Phage-95]",–,–,–,CD28 scFv signal in presence of CD28 [4]: 0.227; CD28 scFv signal [5]: 2.57
YCEGHSQENIWKCL [Peptide-124],–,–,4.07 µM,–
"YCEGHLPEYLAKCL (not fully specified; cysteine pairing not given here; also: biotinylated, site not given here)",–,–,–,Kd (anti-CD28 Fab [3]): 0.0447 µM; t1/2 (anti-CD28 Fab [3]): 60 s
YCWSHSPPFIKKCY [Peptide-131],–,–,> 100 µM,–
YCEGHLPEYIEKCL,–,–,0.36 µM,–
YCEGHAPEYIWKCL [Peptide-123],–,–,1.32 µM,–
YCEGHAPEYIRKCL [Peptide-122],–,–,2.22 µM,–
YCEGHAPEYIAKCL,–,–,0.48 µM,–
YCEGHAPEYIGKCL [Peptide-136],–,–,4.12 µM,–
YCEGHLPEYIWKCL [Peptide-135],–,–,0.63 µM,–
"PDCQTILFKPWCVR (cysteine pairing not given here; also: displayed on phage, fused to pIII, Clonal phage supernatant; not shown: bacteriophage pIII to which the peptide is fused for display) [Phage-457]",0.06,2.09,–,–
YWSCFQIPFTCFYF (Clonal phage supernatant; not shown: bacteriophage pIII to which the peptide is fused for display) [Phage-454],0.27,1.44,–,–
YCEGHSSEYIQKCL [Peptide-129],–,–,3.18 µM,–
